Data on 2 proteins can be found in publication PMC11846989 (Communications Biology, 2025).

The data set “SEC” deals with the molecule itself. Nature of the data set: SEC.
The data set “SEC-MALS” deals with the molecule itself. Nature of the data set: SEC-MALS. (Size exclusion chromatography separates by hydrodynamic size, large species first.)

B1: human GBP2 G domain (1-309), wild type (domain or fragment, UniProt P32456 1-309, looked up)
chain: MAPEINLPGPMSLIDNTKGQLVVNPEALKILSAITQPVVVVAIVGLYRTGKSYLMNKLAGKKNGFSLGSTVKSHTKGIWMWCVPHPKKPEHTLVLLDTEGLGDIEKGDNENDSWIFALAILLSSTFVYNSMGTINQQAMDQLHYVTELTDRIKANSSPGNNSVDDSADFVSFFPAFVWTLRDFTLELEVDGEPITADDYLELSLKLRKGTDKKSKSFNDPRLCIRKFFPKRKCFVFDWPAPKKYLAHLEQLKEEELNPDFIEQVAEFCSYILSHSNVKTLSGGIPVNGPRLESLVLTYVNAISSGDLPC
For the protein B1, the “stoichiometry N” value in the data set “SEC” is 2.

B2: full-length human GBP2 (guanylate-binding protein 2), wild type (natural protein, UniProt P32456 1-591, looked up)
chain: MAPEINLPGPMSLIDNTKGQLVVNPEALKILSAITQPVVVVAIVGLYRTGKSYLMNKLAGKKNGFSLGSTVKSHTKGIWMWCVPHPKKPEHTLVLLDTEGLGDIEKGDNENDSWIFALAILLSSTFVYNSMGTINQQAMDQLHYVTELTDRIKANSSPGNNSVDDSADFVSFFPAFVWTLRDFTLELEVDGEPITADDYLELSLKLRKGTDKKSKSFNDPRLCIRKFFPKRKCFVFDWPAPKKYLAHLEQLKEEELNPDFIEQVAEFCSYILSHSNVKTLSGGIPVNGPRLESLVLTYVNAISSGDLPCMENAVLALAQIENSAAVEKAIAHYEQQMGQKVQLPTETLQELLDLHRDSEREAIEVFMKNSFKDVDQMFQRKLGAQLEARRDDFCKQNSKASSDCCMALLQDIFGPLEEDVKQGTFSKPGGYRLFTQKLQELKNKYYQVPRKGIQAKEVLKKYLESKEDVADALLQTDQSLSEKEKAIEVERIKAESAEAAKKMLEEIQKKNEEMMEQKEKSYQEHVKQLTEKMERDRAQLMAEQEKTLALKLQEQERLLKEGFENESKRLQKDIWDIQMRSKSLEPICNIL
Take B2: the “stoichiometry N” value in “SEC-MALS” is 2.

As a reminder, the stoichiometry N is a count of units in the complex or per binding partner.
